For the test, the target named is E. coli Hsp70 (DnaK) (E. coli, UniProt P0A6Y8 1-638). The test can be described thus: SPR. (In general: In SPR one partner is held on a chip, and binding of the other changes the refractive index at the surface.)
Chain of E. coli Hsp70 (DnaK) (P0A6Y8 whole entry): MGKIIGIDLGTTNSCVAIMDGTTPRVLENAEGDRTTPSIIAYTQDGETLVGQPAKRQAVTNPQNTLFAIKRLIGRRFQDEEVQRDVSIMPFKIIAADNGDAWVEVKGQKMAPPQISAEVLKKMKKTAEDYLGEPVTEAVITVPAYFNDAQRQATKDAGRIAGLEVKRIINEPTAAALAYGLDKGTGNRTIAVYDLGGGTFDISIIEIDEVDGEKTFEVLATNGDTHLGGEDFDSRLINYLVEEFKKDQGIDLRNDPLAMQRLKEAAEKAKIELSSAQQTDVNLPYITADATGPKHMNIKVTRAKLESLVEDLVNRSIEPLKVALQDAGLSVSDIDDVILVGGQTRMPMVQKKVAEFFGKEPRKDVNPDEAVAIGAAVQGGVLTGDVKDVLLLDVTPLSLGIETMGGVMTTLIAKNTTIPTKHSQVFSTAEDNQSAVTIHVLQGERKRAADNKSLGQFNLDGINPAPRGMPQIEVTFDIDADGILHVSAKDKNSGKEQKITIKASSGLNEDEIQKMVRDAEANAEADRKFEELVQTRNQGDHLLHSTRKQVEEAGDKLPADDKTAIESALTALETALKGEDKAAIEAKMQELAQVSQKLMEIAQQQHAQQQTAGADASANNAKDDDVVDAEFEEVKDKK

For GFRNNNMYRF, the binding result was “binds”.
As to NRNNTG, the binding result is given as “binds”.
As to NRLLTG, the binding result is recorded as “binds”.
The value for ALLLMYRR was “binds”.
With GFRVVLMYRF the entry was “binds”; with ANNNMYRR, “binds”.

For the origin of these results see article doi:10.1101/2020.03.09.984104 (bioRxiv, 2020).
